The supplement of paper PMC10567573
± gives the standard deviation.

Experiment: protein stability index of a GFP-peptide fusion (GPS, HEK-293T) (PSI 1-6); higher = more stable
[1] = treatment: DMSO, c terminus: a fixed tail appended
[2] = treatment: MLN4924 1 uM, 8 h, c terminus: a fixed tail appended
[3] = treatment: DMSO, c terminus: native
[4] = treatment: MLN4924 1 uM, 8 h, c terminus: native
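Further: 24-mer peptide tiles fused after GFP, lentivirally expressed, FACS-sorted into six equal bins by GFP/DsRed ratio, decoded by Illumina sequencing, PSI is the read-weighted mean bin number.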

Sequence: FLQQSLERVYSLQHLDPQGAQELL [INTS4]
- protein stability index [1]: 1.91 ± 0.42
- protein stability index [2]: 2.76 ± 0.54

Sequence: SSKFYDLFLMDLSEGELGGPSEPG [RHOBTB2]
- protein stability index [1]: 3.19 ± 0.2
- protein stability index [2]: 3.25 ± 0.34

Sequence: EDSLGCLTADTKEVTASQEARGLR [IRX6]
- protein stability index [1]: 5.34 ± 0.25
- protein stability index [2]: 5.3 ± 0.27

Sequence: KSKAYTVVGTPCYISPELCEGKPY [NEK8]
- protein stability index [1]: 2.83 ± 0.084
- protein stability index [2]: 3.03 ± 0.27

Sequence: AHSSSNTIRSGISPNLNVVDGRLT [SASS6]
- protein stability index [1]: 4.16 ± 0.28
- protein stability index [2]: 4.31 ± 0.12

Sequence: GSKNVFSTFRTPAVLFTGIVALYI [ATL3]
- protein stability index [1]: 3.11 ± 0.7
- protein stability index [2]: 2.67 ± 0.57

Sequence: TCGVCALELGSTEVLLDHLKAHAE [PLAGL1]
- protein stability index [1]: 2.78 ± 0.46
- protein stability index [2]: 2.78 ± 0.42

Sequence: AEPGALGEPGAAAPAMYDDESAID [CEBPD]
- protein stability index [1]: 5.6 ± 0.57
- protein stability index [2]: 5.77 ± 0.21

Sequence: ERMAEEGGGGQGDGGSSLASGSTQ [FBXO28]
- protein stability index [1]: 5.53 ± 0.35
- protein stability index [2]: 5.35 ± 0.33

Sequence: ETLSITNCRLSEGDVMHLSQSPSV [PRAME]
- protein stability index [1]: 3.2 ± 0.66
- protein stability index [2]: 3.22 ± 0.77

Sequence: PGRSALIVAVLCYINLLNYMDRFT [SPNS1]
- protein stability index [1]: 2.81 ± 0.88
- protein stability index [2]: 3.44 ± 0.31

Sequence: DLRHLRAVPTDEARAFAEKNNLSF [RAB11B]
- protein stability index [1]: 3.63 ± 0.15
- protein stability index [2]: 3.54 ± 0.23

Sequence: MWVRFRAFEAARDLDACALVRGHR [ZSWIM9]
- protein stability index [1]: 2.17 ± 0.25
- protein stability index [2]: 2.06 ± 0.22

Sequence: VEVDAAPAVDLNQVLNETRNQYEA [KRT33B]
- protein stability index [1]: 4.91 ± 0.29
- protein stability index [2]: 5.17 ± 0.21

Sequence: DQNNVIENEETGEFSIDNYPTDNT [MIA2]
- protein stability index [1]: 5.21 ± 0.74
- protein stability index [2]: 5.5 ± 0.17

Sequence: AHRERNEFPEDPEFEAVVRQAELA [PI4K2A]
- protein stability index [1]: 5.32 ± 0.12
- protein stability index [2]: 5.36 ± 0.43

Sequence: DMENKENGSVGVKNSMENGRPPDP [SAMD13]
- protein stability index [1]: 5.11 ± 0.27
- protein stability index [2]: 5.15 ± 0.32

Sequence: VLSESSGPSNTSHSSSRDSHLSNG [C2CD2L]
- protein stability index [1]: 4.96 ± 0.28
- protein stability index [2]: 5 ± 0.13

Sequence: ERLVAQFPSSGRFWKLYIEAEVTI [CSTF3]
- protein stability index [1]: 2.93 ± 0.61
- protein stability index [2]: 2.71 ± 0.38

Sequence: GFYFEVCGMMVESVNAKTLMSRI [PCDHGA10]
- protein stability index [3]: 2.81 ± 0.26
- protein stability index [4]: 2.41 ± 1

Sequence: VCLMGHERRQTLNLISLLALRVLA [TENT5C]
- protein stability index [1]: 2.72 ± 0.56
- protein stability index [2]: 2.5 ± 0.37

Sequence: GPVQVVLVQKDQHSFELDEKALAS [ATL3]
- protein stability index [1]: 3.65 ± 0.18
- protein stability index [2]: 4.06 ± 0.2

Sequence: HRLMTDARRRVCHTEDFQKEEGTV [CPXM2]
- protein stability index [1]: 4.76 ± 0.26
- protein stability index [2]: 4.8 ± 0.24

Sequence: AKGGSRLCTPEGWFSCQGPFDMDS [DFFB]
- protein stability index [1]: 3.01 ± 0.3
- protein stability index [2]: 3.1 ± 0.27

Sequence: ESHSCPQQVPMPPGQEAQRVVCGI [NEK8]
- protein stability index [1]: 4.15 ± 0.28
- protein stability index [2]: 4.15 ± 0.12

Sequence: RMSEDKPQDYKKRLSVELTSSLFR [CTNNB1]
- protein stability index [1]: 3.4 ± 0.1
- protein stability index [2]: 3.42 ± 0.25

Sequence: SPDSSMLCSVGASKAVFLWNMDKY [WSB1]
- protein stability index [1]: 2.35 ± 0.42
- protein stability index [2]: 2.35 ± 0.26

Sequence: KKAPQPAKPRLAERMTTREKKVLE [HDAC6]
- protein stability index [1]: 4.58 ± 0.18
- protein stability index [2]: 4.81 ± 0.39

Sequence: MQPFNYVTLQCLAARALDKNKIPY [FEM1A]
- protein stability index [1]: 3.25 ± 0.38
- protein stability index [2]: 2.97 ± 0.31

Sequence: RKRIHDSRVAGFNPALQLILTRTD [TOR1AIP2]
- protein stability index [1]: 4.2 ± 0.17
- protein stability index [2]: 4.18 ± 0.19

Sequence: ENRALQQLLEQKQAYWAQAEDTAA [CBY2]
- protein stability index [1]: 4.3 ± 0.21
- protein stability index [2]: 4.4 ± 0.21

Sequence: DPPSSSEECPAHLLEDPLCADVIL [RHOBTB2]
- protein stability index [1]: 4.89 ± 0.21
- protein stability index [2]: 5.11 ± 0.23

Sequence: QTPQVNINPFTPDSLLLHSSGQCR [WEE1]
- protein stability index [1]: 3.6 ± 0.24
- protein stability index [2]: 3.86 ± 0.34

Sequence: APAQRATRGFLRSPSSDLDTDAEG [RETREG3]
- protein stability index [1]: 5.44 ± 0.13
- protein stability index [2]: 5.14 ± 0.18

Sequence: GRSRLYHDGKNQPGVAYPAFLGPD [SPSB4]
- protein stability index [1]: 3.84 ± 0.23
- protein stability index [2]: 3.78 ± 0.19

Sequence: TNLTWDQVITLDQVLDEVIPIHGK [TENT5D]
- protein stability index [1]: 2.47 ± 0.16
- protein stability index [2]: 2.61 ± 0.3

Sequence: ELTLSKTDLEMQIESLNEELAYMK [KRT13]
- protein stability index [1]: 3.66 ± 0.15
- protein stability index [2]: 3.66 ± 0.35

Sequence: EYVEKETQEKKRLSRTNEELLWKL [MTUS2]
- protein stability index [1]: 4.04 ± 0.25
- protein stability index [2]: 4.17 ± 0.22

Sequence: DSIKTEVSGCPEDLTVGRAPTADD [NOL4L]
- protein stability index [1]: 5.63 ± 0.34
- protein stability index [2]: 5.68 ± 0.15

Sequence: IALDLTPVIEELTNAGFLQTESEL [FAN1]
- protein stability index [1]: 2.46 ± 0.26
- protein stability index [2]: 2.57 ± 0.37

Sequence: PKEEQQQALEQFAAAAAHSTPVRR [EPB41L3]
- protein stability index [1]: 5.37 ± 0.087
- protein stability index [2]: 5.22 ± 0.33

Sequence: LTQIDGTLSTIEFQREALENSHTN [CHMP4C]
- protein stability index [1]: 4.34 ± 0.25
- protein stability index [2]: 4.57 ± 0.22

Sequence: VILSEIKEAVAALPPDVTTQSVMG [TCF25]
- protein stability index [1]: 2.77 ± 0.43
- protein stability index [2]: 2.65 ± 0.2

Sequence: DKELLCCSCQADPRHQGHRVQPVK [TRIM35]
- protein stability index [1]: 3.56 ± 0.32
- protein stability index [2]: 4.06 ± 0.3

Sequence: GSIGVWHYICPRLGGIGFSSCIVC [SLC6A17]
- protein stability index [1]: 2.58 ± 0.054
- protein stability index [2]: 2.41 ± 1.2

Sequence: QKKIESYLHNHFIGEGMTKYDYLM [TENT5D]
- protein stability index [1]: 2.13 ± 0.45
- protein stability index [2]: 2.18 ± 0.27

Sequence: WTVANMEEIKKLTTDPDLILEVLR [LARP4]
- protein stability index [1]: 2.15 ± 0.29
- protein stability index [2]: 2.62 ± 0.27

Sequence: GEHKDRIERQWGNLLGEGQHKCDE [ZSCAN9]
- protein stability index [1]: 4.88 ± 0.4
- protein stability index [2]: 4.93 ± 0.14

Sequence: RPVAPRRPRDAVGQRGAQGAGRRR [SMAD6]
- protein stability index [1]: 5.27 ± 0.23
- protein stability index [2]: 5.43 ± 0.14

Sequence: DRKVLLKSDSPTGDVLLDETLKHI [GOLPH3L]
- protein stability index [1]: 4.17 ± 0.16
- protein stability index [2]: 4.54 ± 0.3

Sequence: PNKGLLSDSMTDVPVDTGVAARTP [TPD52L2]
- protein stability index [1]: 4.9 ± 0.17
- protein stability index [2]: 4.93 ± 0.16

Sequence: INLPVEEFNELLSKYQLSEAQLSL [NFE2L1]
- protein stability index [1]: 2.47 ± 0.44
- protein stability index [2]: 2.51 ± 0.21

Sequence: CLFSLINGDDMFVTFAAMQAQQGR [MCOLN1]
- protein stability index [1]: 2.97 ± 0.47
- protein stability index [2]: 2.74 ± 0.66

Sequence: LRHLSPTPSEEHMKNKNNVTEFIL [OR4A15]
- protein stability index [1]: 3.27 ± 0.18
- protein stability index [2]: 3.36 ± 0.12

Sequence: LASLVSQGMIQLALSGASQPGPSG [RETREG3]
- protein stability index [1]: 2.89 ± 1.2
- protein stability index [2]: 1.99 ± 0.66

Sequence: QLLWREFFYTAATNNPRFDKMEGN [CRY1]
- protein stability index [1]: 2.02 ± 0.23
- protein stability index [2]: 2 ± 0.38

Sequence: DDSGKDKKKKTKKIKEKYIDQEEL [HSP90AB1]
- protein stability index [1]: 5.39 ± 0.29
- protein stability index [2]: 5.37 ± 0.32

Sequence: SIDFNKDGHIDINEFLEAFRLVEK [PPEF2]
- protein stability index [1]: 2.88 ± 0.17
- protein stability index [2]: 3.32 ± 0.4

Sequence: MLEDGPHNANRGQRLLAFSRGRA [CCDC70]
- protein stability index [3]: 2.99 ± 0.63
- protein stability index [4]: 2.77 ± 0.41

Sequence: DLRHLRAVPTDEARAFAEKNGLSF [RAB11A]
- protein stability index [1]: 3.54 ± 0.2
- protein stability index [2]: 3.52 ± 0.22

Sequence: GILTFLAVLGRYVPGLLLSYLMLV [RETREG3]
- protein stability index [1]: 3.42 ± 0.28
- protein stability index [2]: 2.95 ± 0.72

Sequence: DQDDRRTWDGRPLTMAATFDDCLY [GFOD1]
- protein stability index [1]: 3.74 ± 0.34
- protein stability index [2]: 3.99 ± 0.22

Sequence: VEGFRITLVDESDLYNWEVAIFGP [UBE2R2]
- protein stability index [1]: 2.84 ± 0.79
- protein stability index [2]: 2.52 ± 0.68

Sequence: LEPEAAEEALENGPKESLPVIAAP [ACBD3]
- protein stability index [1]: 5.67 ± 0.25
- protein stability index [2]: 5.64 ± 0.24

Sequence: GRPIPGTSTRYEQPKCDNTARAHP [SMOC2]
- protein stability index [1]: 4.76 ± 0.4
- protein stability index [2]: 4.78 ± 0.18
